Read-outs that look alike come from different tables or passages of the source.
Assays:
Op18-Δ5-9-F (human) [1] = assay: pull-down
Op18-Δ5-9-F (human) [2] = assay: pull-down; remark: listed apart in the source
[3] = target: tubulin as used by Curmi et al. 1997; assay: plasmon resonance measurement; conditions: pH 6.5; cited from earlier work

Row | Free [tubulin] at half saturation of Op18 (Op18-Δ5-9-F (human) [1]) | Kd1 (first tubulin heterodimer) (Op18-Δ5-9-F (human) [1]) | Kd2 (second tubulin heterodimer) (Op18-Δ5-9-F (human) [1]) | stoichiometry N (mol tubulin per mol) (Op18-Δ5-9-F (human) [1]) | Kd1 (first tubulin heterodimer) (Op18-Δ5-9-F (human) [2]) | Kd2 (second tubulin heterodimer) (Op18-Δ5-9-F (human) [2]) | Substance | Kd [3]
1 | 7.1 µM | 74 µM | 0.98 µM | 2.1 | 6.5 µM | 0.91 µM | tubulin heterodimer (bovine tubulin) (from UniProt Q6B856 1-445) (complex) | 
2 |  |  |  |  |  |  | stathmin/Op18 as used by Curmi et al. 1997 | 500 nM

— PMC2156119
